Measurements published in PMC13086964 (Nature Communications, 2026).
Values belong to the binder of their own block, whether it stands above or below them.

Experiments:
[1] = molecular target: T1, recombinant full length His6-MBP-FAN1-His6 (human, UniProt Q9Y2M0 1-1017); test: pull-down; in vitro streptavidin pull-down with recombinant biotin-tagged USP7 TRAF-like or UBL domains and MBP-His-tagged FAN1 (Figure S3A); details: both partners purified
T1 construct: human FAN1, full length; Tag ends are read from the printed name His6-MBP-FAN1-His6; also called MBP-His-tagged FAN1; recombinant human FAN1; source: E. coli BL21, purified (HisTrap, MBPTrap, desalting); not shown: His6, N-terminal, kept; MBP, N-terminal, kept; His6, C-terminal, kept
T1 sequence (looked up): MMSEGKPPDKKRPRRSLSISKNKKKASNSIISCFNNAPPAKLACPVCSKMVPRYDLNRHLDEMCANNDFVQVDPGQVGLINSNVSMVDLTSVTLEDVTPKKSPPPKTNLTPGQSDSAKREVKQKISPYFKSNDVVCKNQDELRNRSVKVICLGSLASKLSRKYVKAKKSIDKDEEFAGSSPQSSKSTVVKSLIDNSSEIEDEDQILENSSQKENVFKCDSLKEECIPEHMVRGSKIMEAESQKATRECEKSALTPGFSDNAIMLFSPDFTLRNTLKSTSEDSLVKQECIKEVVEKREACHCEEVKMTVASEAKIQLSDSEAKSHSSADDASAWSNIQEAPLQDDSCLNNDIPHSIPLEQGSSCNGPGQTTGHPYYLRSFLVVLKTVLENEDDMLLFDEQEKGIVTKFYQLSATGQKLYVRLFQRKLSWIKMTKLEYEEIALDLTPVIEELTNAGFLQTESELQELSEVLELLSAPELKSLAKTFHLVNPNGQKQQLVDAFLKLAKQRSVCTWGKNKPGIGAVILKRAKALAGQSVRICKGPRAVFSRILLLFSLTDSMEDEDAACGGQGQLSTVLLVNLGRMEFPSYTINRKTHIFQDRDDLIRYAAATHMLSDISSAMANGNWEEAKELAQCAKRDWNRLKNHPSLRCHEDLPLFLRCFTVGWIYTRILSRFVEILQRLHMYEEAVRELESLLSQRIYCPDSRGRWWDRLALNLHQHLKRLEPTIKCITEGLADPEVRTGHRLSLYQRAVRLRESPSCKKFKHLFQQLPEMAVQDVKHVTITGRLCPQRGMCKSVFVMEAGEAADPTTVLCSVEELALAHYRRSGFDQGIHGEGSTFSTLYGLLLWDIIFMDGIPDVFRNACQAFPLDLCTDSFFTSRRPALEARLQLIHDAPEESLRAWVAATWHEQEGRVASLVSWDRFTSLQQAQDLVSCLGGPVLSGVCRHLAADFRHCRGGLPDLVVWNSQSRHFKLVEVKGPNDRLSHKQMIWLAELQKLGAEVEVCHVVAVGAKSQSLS

[2] = molecular target: T2, purified recombinant His-USP7, full-length (human, UniProt Q93009 1-1102); test: pull-down; GST-FAN1-NTD on Glutathione Sepharose beads, 0.5 µg recombinant His-USP7, 1 h at 4 °C in PBS-1% Triton; washes with 300 mM NaCl; immunoblotting; details: both partners purified
T2 construct: human USP7, recombinant, full-length; also called human recombinant USP7; source: bought: R&D Systems (# E-519)
T2 sequence (Q93009 whole entry): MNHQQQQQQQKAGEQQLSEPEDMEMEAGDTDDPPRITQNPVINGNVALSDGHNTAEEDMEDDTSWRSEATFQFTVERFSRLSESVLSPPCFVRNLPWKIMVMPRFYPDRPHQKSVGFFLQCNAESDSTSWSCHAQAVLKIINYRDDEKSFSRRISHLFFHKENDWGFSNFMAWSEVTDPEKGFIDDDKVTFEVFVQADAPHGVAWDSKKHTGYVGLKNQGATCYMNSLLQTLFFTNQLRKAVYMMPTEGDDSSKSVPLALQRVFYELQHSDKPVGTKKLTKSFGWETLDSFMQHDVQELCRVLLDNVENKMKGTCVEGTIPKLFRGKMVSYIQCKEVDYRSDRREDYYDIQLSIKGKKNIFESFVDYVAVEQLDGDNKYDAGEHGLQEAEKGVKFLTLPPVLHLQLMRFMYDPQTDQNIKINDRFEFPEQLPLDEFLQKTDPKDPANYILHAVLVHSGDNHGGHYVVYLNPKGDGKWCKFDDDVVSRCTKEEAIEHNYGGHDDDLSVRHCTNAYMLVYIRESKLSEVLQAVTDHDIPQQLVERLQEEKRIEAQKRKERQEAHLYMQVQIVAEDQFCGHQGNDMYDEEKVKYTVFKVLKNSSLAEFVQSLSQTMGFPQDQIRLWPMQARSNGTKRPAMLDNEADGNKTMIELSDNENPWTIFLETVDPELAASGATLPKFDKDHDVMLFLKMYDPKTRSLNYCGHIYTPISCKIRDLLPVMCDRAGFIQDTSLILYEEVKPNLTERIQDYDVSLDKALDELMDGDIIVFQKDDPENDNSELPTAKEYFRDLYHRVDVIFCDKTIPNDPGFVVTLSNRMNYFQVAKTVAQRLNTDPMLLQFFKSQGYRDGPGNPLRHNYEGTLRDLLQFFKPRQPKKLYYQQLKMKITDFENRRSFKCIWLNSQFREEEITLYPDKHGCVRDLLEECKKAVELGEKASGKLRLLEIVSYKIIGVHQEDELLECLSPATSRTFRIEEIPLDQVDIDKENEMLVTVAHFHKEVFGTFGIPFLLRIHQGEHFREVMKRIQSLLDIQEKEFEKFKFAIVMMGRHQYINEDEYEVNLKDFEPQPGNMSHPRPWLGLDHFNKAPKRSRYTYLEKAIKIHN

- binding result [1]: binds
B1: USP7 UBL domain (residues 520-1067), biotinylated (domain or fragment, human, UniProt Q93009 520-1067, looked up)
chain: RESKLSEVLQAVTDHDIPQQLVERLQEEKRIEAQKRKERQEAHLYMQVQIVAEDQFCGHQGNDMYDEEKVKYTVFKVLKNSSLAEFVQSLSQTMGFPQDQIRLWPMQARSNGTKRPAMLDNEADGNKTMIELSDNENPWTIFLETVDPELAASGATLPKFDKDHDVMLFLKMYDPKTRSLNYCGHIYTPISCKIRDLLPVMCDRAGFIQDTSLILYEEVKPNLTERIQDYDVSLDKALDELMDGDIIVFQKDDPENDNSELPTAKEYFRDLYHRVDVIFCDKTIPNDPGFVVTLSNRMNYFQVAKTVAQRLNTDPMLLQFFKSQGYRDGPGNPLRHNYEGTLRDLLQFFKPRQPKKLYYQQLKMKITDFENRRSFKCIWLNSQFREEEITLYPDKHGCVRDLLEECKKAVELGEKASGKLRLLEIVSYKIIGVHQEDELLECLSPATSRTFRIEEIPLDQVDIDKENEMLVTVAHFHKEVFGTFGIPFLLRIHQGEHFREVMKRIQSLLDIQEKEFEKFKFAIVMMGRHQYINEDEYEVNLKDFEPQP
modifications: biotin (on the AviTag)
notes: human USP7 UBL domain, residues 520-1067; p28BIOH-LIC vector; also called USP7 UBL domains; source: E. coli BL21(DE3)-pBirAcm, purified (TALON, SEC); not shown: AviTag, N-terminal, kept

- binding result [2]: binds
B2: GST-FAN1-NTD (aa 1-372) (domain or fragment, human, UniProt Q9Y2M0 1-372, looked up)
chain: MMSEGKPPDKKRPRRSLSISKNKKKASNSIISCFNNAPPAKLACPVCSKMVPRYDLNRHLDEMCANNDFVQVDPGQVGLINSNVSMVDLTSVTLEDVTPKKSPPPKTNLTPGQSDSAKREVKQKISPYFKSNDVVCKNQDELRNRSVKVICLGSLASKLSRKYVKAKKSIDKDEEFAGSSPQSSKSTVVKSLIDNSSEIEDEDQILENSSQKENVFKCDSLKEECIPEHMVRGSKIMEAESQKATRECEKSALTPGFSDNAIMLFSPDFTLRNTLKSTSEDSLVKQECIKEVVEKREACHCEEVKMTVASEAKIQLSDSEAKSHSSADDASAWSNIQEAPLQDDSCLNNDIPHSIPLEQGSSCNGPGQTTGH
notes: also called GST-tagged FAN1; source: E. coli BL21-CodonPlus RIL, purified from soluble extracts on Glutathione Sepharose beads
